Patent US11370846B2, “Compositions and methods to regulate Renalase in the treatment of cancer” (Yale University, priority 2014, dated 2022)
Entries after “also recorded” stand apart in the source; their conditions may differ.

What was measured:
BxPC3 xenografted tumors = experiment: BxPC3 pancreatic xenograft in athymic nude mice; assay type: in vivo, mouse
Experimental: Immunohistochemistry was performed as described previously (Guo et al., 2012 Cancer Science. 103(8):1474-80). Briefly tumor tissues were formalin-fixed, paraffin-embedded and cut into 5-μm sections on glass slides. The slides were de-paraffinized and hydrated, followed by antigen retrieval in a pressure cooker containing 10 mM sodium citrate, pH6 buffer. The sections were blocked in 3% hydrogen peroxide for 30 min and 2.5% normal horse serum in PBS/0.1% Tween20 for 1 h followed by incubation with primary antibody and isotype control IgG overnight at 4° C. […]
Xenograft tumors were established by subcutaneous injection of BxPC3 cells (2×10^6 in 100 μl of PBS, pH 7.6). […] Tumor size was measured with digital calipers and volume was calculated according to the formula (length×width)×π/2. […] These animals received no further treatments, and tumor size and volume were measured for up to 30 days.
At the end of the study, the mice were sacrificed, the tumors were excised and immediately snap-frozen in liquid nitrogen and stored at −80° C. […] Sections were examined by light microscopy and the apoptosis index was determined by counting >1000 cells in 5 randomly selected high-power fields (×200 magnification).

[1] = test system: renalase-1 and renalase-2; experiment: Renalase isoform specificity of anti-renalase antibodies; assay type: binding, human; details: renalase-1 vs renalase-2
Experimental: Peptides were used as immunogens. The peptides generated ranged from 9 to 21 amino acids and corresponded to regions of the renalase-1 and renalase-2 proteins. […] Each peptide was conjugated to the adjuvant KLH via the cysteine and used to immunize 6 rabbits. Antiserum collected from each animal was screened for anti-renalase antibody titer by ELISA assay using both the relevant peptide (BSA-conjugate) or full length renalase-1 or 2. The antisera were also tested for their ability to detect endogenous renalase in tissue lysates by western blot. Using these screening criteria the animals producing antibodies with the preferred characteristics were selected. In some examples and for some peptides, several animals produced antibodies with the required specificity. […] Polyclonal antibodies raised against all of the peptides were generated by purification of total IgG from terminal bleeds by protein G chromatography followed by further purification on peptide affinity chromatography. Further and using standard procedures, lymphocytes from the spleens of selected animals were fused to myeloma cells for hybridoma generation. The hybridoma supernatants were screened for binding to both the peptides against which they were raised and secondarily screened against whole renalase protein. Selected hybridomas were sub-cloned and expanded for antibody purification. The monoclonal antibodies were purified from conditioned hybridoma culture supernatant by protein A affinity chromatography.

STAT3 = STAT3 phosphorylation in Panc1 cells by western blot; assay type: cell-based, human; details: antibody treatment for up to 4 days; listed as m28-RNLS
Source text: FIG. 27A through FIG. 27E are a series of images and charts showing the interaction between RNLS and STAT3, and the mechanistic model of inhibition by m28-RNLS. FIG. 27A is an image showing activation of STAT3 by RNLS in Panc1 cells; Panc1 cells in culture treated with either BSA or RNLS, and STAT3 phosphorylation assessed by western blot; p-Ser^727-STAT3: phosphorylation at serine 727, p-Y^705-STAT3: phosphorylation at tyrosine 705; representative study. FIG. 27B is a chart depicting the quantification of STAT3 phosphorylation with RNLS; signals normalized to total STAT3; n=3, *=P<0.05. […] FIG. 27D is a chart showing the quantification of STAT3 phosphorylation with m28-RNLS; signals normalized to GAPDH loading control; n=3, *=P<0.05. FIG. 27E depicts the proposed mechanistic model for antitumor activity of m28-RNLS.

Panc1 cells = experiment: FACS apoptosis and cell cycle analysis of Panc1 cells; assay type: cell-based, human; details: 30 μg/ml
Experimental: FIG. 26A through FIG. 26E are a series of images and charts showing that inhibition of RNLS signaling induces apoptosis and cell cycle arrest. […] FIG. 26B is a chart depicting FACS analysis of Panc1 cells in culture treated with either m28-RNLS (30 μg/ml) or 100 μM etoposide (positive control) for 4 days; n=3, * indicates p<0.05. FIG. 26C is an image showing Panc1 cells treated with polyclonal ab31291 or with goat IgG as a negative control, and cells lysates probed for p38 and Bax activation by western blot. […] FIG. 26E is a chart showing the effect of m28-RNLS on cell cycle of Panc1 cells determined by FACS analysis; green curve: no treatment, purple curve: rabbit IgG, red curve: m28-RNLS 30 μg/ml.
For cell cycle analysis, cultured cells were dissociated using 10 mM EDTA, fixed with ice-cold 70% ethanol, digested with RNAse A, and stained with propidium iodide. Propidium staining was detected using a BD FACSCalibur flow cytometer (BD Biosciences, San Jose, Calif., USA), and analyzed using CellQuest software.
Apoptosis was detected and quantified as previously done (Guo et al., 2012 Cancer Science. 103(8):1474-80). […] At least 20,000 events were collected on a BD FACSCalibur flow cytometer (BD Biosciences, San Jose, Calif., USA) and analyzed using CellQuest software.

B1: 1D-28-4: rabbit anti-renalase monoclonal raised against peptide RP-220 (antigen 1D); heavy chain SEQ ID NO:9, light chain SEQ ID NO:10 (antibody)
heavy: METGLRWLLLVAVLKGVQCQSVEESGGRLVTPGTPLTLTCTVSGFSLSSFAVGWVRQAPGKGLEYIGIISSVGITRYASWAAGRFTISKTSTTVDLKITSPTTEDTATYFCARYGYSGDVNRLDLWGQGTLVTVSSGQPKAPSVFPLAPCCGDTPSSTVTLGCLVKGYLPEPVTVTWNSGTLTNGVRTFPSVRQSSGLYSLSSVVSVTSSSQPVTCNVAHPATNTKVDKTVAPSTCSKPTCPPPELLGGPSVFIFPPKPKDTLMISRTPEVTCVVVDVSQDDPEVQFTWYINNEQVRTARPPLREQQFNSTIRVVSTLPIAHQDWLRGKEFKCKVHNKALPAPIEKTISKARGQPLEPKVYTMGPPREELSSRSVSLTCMINGFYPSDISVEWEKNGKAEDNYKTTPAVLDSDGSYFLYSKLSVPTSEWQRGDVFTCSVMHEALHNHYTQKSISRSPGK
light: MDTRAPTQLLGLLLLWLPGATFAQVLTQTASPVSAAVGGTVTINCQASQSVYDNNNLAWYQQKPGQPPKQLIYGASTLASGVSSRFKGSGSGTQFTLTISGVQCDDAATYYCLGEFSCSSADCFAFGGGTEVVVKGDPVAPTVLIFPPSADLVATGTVTIVCVANKYFPDVTVTWEVDGTTQTTGIENSKTPQNSADCTYNLSSTLTLTSTQYNSHKEYTCKVTQGTTSVVQSFNRGDC
modifications: oryctolagus cuniculus
With B1 the p21 positive cells (BxPC3 xenografted tumors; IHC) was 178.1±11.4 positive cells/high power field, the “decrease in expression of Ki67 vs IgG” value (BxPC3 xenografted tumors; mouse, in vivo) was 2.5 fold and the renalase isoform specificity [1] was “recognize renalase-1 and renalase-2”. The “p-Y705-STAT3 in Panc1” value (STAT3) was “long-lasting and sustained decrease; also recorded: inhibits STAT3 phosphorylation”, the “cell cycle of Panc1 cells” value (Panc1 cells) was “pre-G2 cell cycle arrest” and the “apoptosis of Panc1 cells” value (Panc1 cells; 4 days) was “caused apoptosis”.
